Drawing on PMC3819817, this text covers stoichiometry N for one substance.

Experiment [1] addresses recombinant Arabidopsis thaliana Nfu2 without the plastidial targeting sequence (Arabidopsis thaliana) (UniProt Q93W20). The experiment in a line: SEC. For orientation: SEC sorts molecules by how far they enter the pores of the column.
Experiment [2] shares this target. Put plainly: SEC. The source holds these as a separate data set.

Several values for one entry are separate records, joined by “and”; a condition that tells them apart may be missing. Equal entries are not always repeated. Where two headings read alike, the source gives them in different places.

On to “recombinant Arabidopsis thaliana Nfu2 without the plastidial targeting sequence (from UniProt Q93W20 73-235) (natural protein)”, for which the stoichiometry N in experiment [1] was 4 and 2; in experiment [2], 2.

One may read the stoichiometry N as a count of units in the complex or per binding partner.
